Tests used:
[1] = biological target: T1, neutrophil gelatinase associated lipocalin (NGAL) (UniProt P80188 21-198); test: FRET quenching titration in solution; one value given for outer and inner domain
T1 construct: also called recombinant NGAL
Method: (§1) Briefly, the dissociation constants for the outer variable binding domain and the inner variable binding domain of a given DVD-Ig and its corresponding antigen were measured in direct binding experiments. […] After 30 minutes of incubation, all samples were measured on an SLM 8100 photon counting spectrofluorimeter. Samples were excited at 480 nm, and the emission was collected through a 530 nm (30 nm bandwidth) interference filter (Chroma Technology Corp., Rockingham, Vt.). All binding measurements were performed in 10 mM HEPES buffer, pH 7.4, containing 0.15 M NaCl, 3 mM EDTA, and 0.005% surfactant P20.
(§2) where Ligandₜₒₜₐₗ and ABSₜₒₜₐₗ are the -antigen concentrations and the total DVD-Ig binding sites for that antigen, respectively, and Fbound is the fraction of bound antigen. The binding data were fitted with a simple binding model to obtain the equilibrium dissociation constant (KD) according to equation [2]: […]

[2] = biological target: T2, interleukin 18 (IL-18) (UniProt Q14116 37-193); test: FRET quenching titration in solution; outer domain (IL-18 1-4091); outer domain (IL-18 1-4091)
T2 construct: ALEXA Fluor 488-labelled in the FRET assay
Method: as §1, §2

[3] = biological target: T1, neutrophil gelatinase associated …; test: FRET quenching titration in solution; ALEXA 488-antigen, BHQ-labelled binder
Method: as §1, §2

[4] = biological target: T3, brain natriuretic peptide (BNP) (UniProt P16860 103-134); test: FRET quenching titration in solution; one value given for outer and inner domain
T3 construct: ALEXA Fluor 488-labelled in the FRET assay
Method: as §1, §2

[5] = biological target: T1, neutrophil gelatinase associated …; test: FRET quenching titration in solution; one value printed for outer (2322) and inner (903) domain
Method: as §1, §2

[6] = biological target: T1, neutrophil gelatinase associated …; test: FRET quenching titration in solution; inner domain (NGAL 1-2322-455); inner domain (NGAL 1-2322-455)
Method: as §1, §2

[7] = biological target: T3, brain natriuretic peptide (BNP); test: FRET quenching titration in solution; ALEXA 488-antigen, BHQ-labelled binder
Method: as §1, §2

T1 sequence (P80188 21-198 limits assumed): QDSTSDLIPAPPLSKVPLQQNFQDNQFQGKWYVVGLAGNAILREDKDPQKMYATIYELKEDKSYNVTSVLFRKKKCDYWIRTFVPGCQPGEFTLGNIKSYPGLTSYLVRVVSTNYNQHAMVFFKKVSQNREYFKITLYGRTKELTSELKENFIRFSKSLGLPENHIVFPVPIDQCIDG

B1: DVD719 (antibody)
VH: EVQLVESGGGLVQPGGSLKLSCAASGFTFNNYYMSWVRQTPERRLEWVAYISSSGGSTYYSDSVRGRFTISRDTARNTLYLQMTSLKSEDTAMYYCARHFGDYSYFDYWGQGTTLTVSSASTKGPSVFPLAPEVQLVESGGGLVQPGGSLKLSCAASGFTFNNYYMSWVRQTPERRLEWVAYISSSGGSTYYSDSVRGRFTISRDTARNTLYLQMTSLKSEDTAMYYCARHFGDYSYFDYWGQGTTLTVSS
VL: DIQMTQSPASLSASVGETVTITCRASENFYSYLAWYQQKQGKSPQLLVYNAKTLAEGVPSRFSGSGSGTQFSLKINSLQPEDFGTYYCQHHYDIPLTFGAGTKLELKRTVAAPSVFIFPPDIQMTQSPASLSASVGETVTITCRASENFYSYLAWYQQKQGKSPQLLVYNAKTLAEGVPSRFSGSGSGTQFSLKINSLQPEDFGTYYCQHHYDIPLTFGAGTKLELKR
notes: also called DVD719 (2322-2322-LL)
[1]
  Kd: < 0.05 nM

B2: DVD730 (bispecific antibody)
VH: QVQLQQPGSELVRPGASVKLSCKASGYTFTSYWMHWVKQRPGQGLEWIGNIYPGTVNTNYDEKFKNKATLTVDTSSSTAYMLLSSLTSEDSAVYYCTRDYYGGGLNYWGQGTTLTVSSASTKGPEVQLVESGGGLVQPGGSLKLSCAASGFTFNNYYMSWVRQTPERRLEWVAYISSSGGSTYYSDSVRGRFTISRDTARNTLYLQMTSLKSEDTAMYYCARHFGDYSYFDYWGQGTTLTVSS
VL: SIVMTQTPKFLLVSAGDRVTITCKASQSVSNDVAWFQQKPGQSPKLLIYYASNRYAGVPDRFTGSGFGTDFTFTISTVQAEDLAVYFCHQDYSSPRTFGGGTKLEIKRTVAAPDIQMTQSPASLSASVGETVTITCRASENFYSYLAWYQQKQGKSPQLLVYNAKTLAEGVPSRFSGSGSGTQFSLKINSLQPEDFGTYYCQHHYDIPLTFGAGTKLELKR
notes: also called DVD730 (IL18-2322-SS)
[2]
  Kd: 0.6 nM

B3: DVD720 (antibody)
VH: EVQLVESGGGLVQPGGSLKLSCAASGFTFNNYYMSWVRQTPERRLEWVAYISSSGGSTYYSDSVRGRFTISRDTARNTLYLQMTSLKSEDTAMYYCARHFGDYSYFDYWGQGTTLTVSSASTKGPEVQLVESGGGLVQPGGSLKLSCAASGFTFNNYYMSWVRQTPERRLEWVAYISSSGGSTYYSDSVRGRFTISRDTARNTLYLQMTSLKSEDTAMYYCARHFGDYSYFDYWGQGTTLTVSS
VL: DIQMTQSPASLSASVGETVTITCRASENFYSYLAWYQQKQGKSPQLLVYNAKTLAEGVPSRFSGSGSGTQFSLKINSLQPEDFGTYYCQHHYDIPLTFGAGTKLELKRTVAAPDIQMTQSPASLSASVGETVTITCRASENFYSYLAWYQQKQGKSPQLLVYNAKTLAEGVPSRFSGSGSGTQFSLKINSLQPEDFGTYYCQHHYDIPLTFGAGTKLELKR
notes: also called DVD720 (2322-2322-SS)
[1]
  Kd: < 0.07 nM

B4: AB082 (antibody, V domains shown)
VH: EVQLVESGGGLVQPGGSLKLSCAASGFTFNNYYMSWVRQTPERRLEWVAYISSSGGSTYYSDSVRGRFTISRDTARNTLYLQMTSLKSEDTAMYYCARHFGDYSYFDYWGQGTTLTVSS
VL: DIQMTQSPASLSASVGETVTITCRASENFYSYLAWYQQKQGKSPQLLVYNAKTLAEGVPSRFSGSGSGTQFSLKINSLQPEDFGTYYCQHHYDIPLTFGAGTKLELKR
notes: also called AB082 (2322); Chimeric mAb 2322
[3]
  Kd: < 0.05 nM

B5: DVD736 (bispecific antibody)
VH: QVQLQQPGAELVRPGASVKLSCKASGYTFTSYWMNWVKQRPEQGLEWIGRIDPYDSETHYNQKFKDKAILTVDKSSSTAFVQLTSLTSEDSAVYYCVSDGYWGAGTTVTVSSASTKGPSVFPLAPQIQLVQSGPELRKPGETVKISCKGSGYTFTHYGINWVKQTPRKDLKWMGWINTHTGEAYYADDFKGRFAFSLETSANTAYLQINNLNNGDMGTYFCTRSHRFGLDYWGQGTSVTVSS
VL: DVVMTQTPLTLSVTTGQPASISCKSSQSLLDSDGKTYLNWLFQRPGESPKLLIYVVSKLESGVPDRFTGSGSGTDFTLKISRVEAEDLGVYYCLQATHFPWTFGGGTKLEIKRTVAAPSVFIFPPDNVLTQSPPSLAVSLGQRATISCKANWPVDYNGDSYLNWYQQKPGQPPKFLIYAASNLESGIPARFSGSGSGTDFNLNIHPVEEEDAATYYCQQSNEDPFTFGSGTKLEIKR
notes: also called DVD736H/DVD736L
[4]
  Kd: < 0.03 nM

B6: DVD721 (antibody)
VH: KIQLVQSGPELKKPGETVKISCKASGYTFTNYGMNWVKQAPGKGLKWMGWININTGEPTYAEEFKGRFAFSLETSATTAFLQINNLKNEDTATYLCARDSYSGGFDYWGQGTIVTVSSASTKGPSVFPLAPKIQLVQSGPELKKPGETVKISCKASGYTFTNYGMNWVKQAPGKGLKWMGWININTGEPTYAEEFKGRFAFSLETSATTAFLQINNLKNEDTATYLCARDSYSGGFDYWGQGTIVTVSS
VL: DIVMTQSPSSLSVSAGEKVTLSCKSSQSLLISGDQKNYLAWYQQKPGQPPKLLIYGASTRDSGVPDRFTGSGSGADFTLTISSVQAEDLAVYYCQNDHSFPPTFGAGTKLELKRTVAAPSVFIFPPDIVMTQSPSSLSVSAGEKVTLSCKSSQSLLISGDQKNYLAWYQQKPGQPPKLLIYGASTRDSGVPDRFTGSGSGADFTLTISSVQAEDLAVYYCQNDHSFPPTFGAGTKLELKR
notes: also called DVD721 (903-903-LL)
[1]
  Kd: < 0.3 nM

B7: AB083 (antibody, V domains shown)
VH: KIQLVQSGPELKKPGETVKISCKASGYTFTNYGMNWVKQAPGKGLKWMGWININTGEPTYAEEFKGRFAFSLETSATTAFLQINNLKNEDTATYLCARDSYSGGFDYWGQGTIVTVSS
VL: DIVMTQSPSSLSVSAGEKVTLSCKSSQSLLISGDQKNYLAWYQQKPGQPPKLLIYGASTRDSGVPDRFTGSGSGADFTLTISSVQAEDLAVYYCQNDHSFPPTFGAGTKLELKR
notes: also called AB083 (903); Chimeric mAb 903
[3]
  Kd: 0.7 nM

B8: DVD723 (bispecific antibody)
VH: EVQLVESGGGLVQPGGSLKLSCAASGFTFNNYYMSWVRQTPERRLEWVAYISSSGGSTYYSDSVRGRFTISRDTARNTLYLQMTSLKSEDTAMYYCARHFGDYSYFDYWGQGTTLTVSSASTKGPSVFPLAPKIQLVQSGPELKKPGETVKISCKASGYTFTNYGMNWVKQAPGKGLKWMGWININTGEPTYAEEFKGRFAFSLETSATTAFLQINNLKNEDTATYLCARDSYSGGFDYWGQGTIVTVSS
VL: DIQMTQSPASLSASVGETVTITCRASENFYSYLAWYQQKQGKSPQLLVYNAKTLAEGVPSRFSGSGSGTQFSLKINSLQPEDFGTYYCQHHYDIPLTFGAGTKLELKRTVAAPSVFIFPPDIVMTQSPSSLSVSAGEKVTLSCKSSQSLLISGDQKNYLAWYQQKPGQPPKLLIYGASTRDSGVPDRFTGSGSGADFTLTISSVQAEDLAVYYCQNDHSFPPTFGAGTKLELKR
notes: also called DVD723 (2322-903-LL)
[5]
  Kd: < 0.2 nM

B9: DVD731 (bispecific antibody)
VH: QVQLQQPGSELVRPGASVKLSCKASGYTFTSYWMHWVKQRPGQGLEWIGNIYPGTVNTNYDEKFKNKATLTVDTSSSTAYMLLSSLTSEDSAVYYCTRDYYGGGLNYWGQGTTLTVSSASTKGPSVFPLAPEVQLVESGGGLVQPGGSLKLSCAASGFTFNNYYMSWVRQTPERRLEWVAYISSSGGSTYYSDSVRGRFTISRDTARNTLYLQMTSLKSEDTAMYYCARHFGDYSYFDYWGQGTTLTVSS
VL: SIVMTQTPKFLLVSAGDRVTITCKASQSVSNDVAWFQQKPGQSPKLLIYYASNRYAGVPDRFTGSGFGTDFTFTISTVQAEDLAVYFCHQDYSSPRTFGGGTKLEIKRTVAAPSVFIFPPDIQMTQSPASLSASVGETVTITCRASENFYSYLAWYQQKQGKSPQLLVYNAKTLAEGVPSRFSGSGSGTQFSLKINSLQPEDFGTYYCQHHYDIPLTFGAGTKLELKR
notes: also called DVD731 (IL18-2322-LL)
[2]
  Kd: 0.9 nM
[6]
  Kd: 0.08 nM

B10: AB090 (antibody, V domains shown)
VH: QVQLQQPGAELVRPGASVKLSCKASGYTFTSYWMNWVKQRPEQGLEWIGRIDPYDSETHYNQKFKDKAILTVDKSSSTAFVQLTSLTSEDSAVYYCVSDGYWGAGTTVTVSS
VL: DVVMTQTPLTLSVTTGQPASISCKSSQSLLDSDGKTYLNWLFQRPGESPKLLIYVVSKLESGVPDRFTGSGSGTDFTLKISRVEAEDLGVYYCLQATHFPWTFGGGTKLEIKR
notes: also called BNP 3-631-436
[7]
  Kd: 0.3 nM

B11: DVD738 (bispecific antibody)
VH: QIQLVQSGPELRKPGETVKISCKGSGYTFTHYGINWVKQTPRKDLKWMGWINTHTGEAYYADDFKGRFAFSLETSANTAYLQINNLNNGDMGTYFCTRSHRFGLDYWGQGTSVTVSSASTKGPSVFPLAPQVQLQQPGAELVRPGASVKLSCKASGYTFTSYWMNWVKQRPEQGLEWIGRIDPYDSETHYNQKFKDKAILTVDKSSSTAFVQLTSLTSEDSAVYYCVSDGYWGAGTTVTVSS
VL: DNVLTQSPPSLAVSLGQRATISCKANWPVDYNGDSYLNWYQQKPGQPPKFLIYAASNLESGIPARFSGSGSGTDFNLNIHPVEEEDAATYYCQQSNEDPFTFGSGTKLEIKRTVAAPSVFIFPPDVVMTQTPLTLSVTTGQPASISCKSSQSLLDSDGKTYLNWLFQRPGESPKLLIYVVSKLESGVPDRFTGSGSGTDFTLKISRVEAEDLGVYYCLQATHFPWTFGGGTKLEIKR
notes: also called DVD738H/DVD738L
[4]
  Kd: < 0.03 nM
